# Laboratory results from PMC5768738, “Structure of a MacAB-like efflux pump from Streptococcus pneumoniae” (Nature Communications, 2018).
# Molecular target: the molecule itself
# Experiment: crystal structure; Se-Met Spr0693_(59–324) T197M/I317M, hanging drop at 12 °C, sodium acetate pH 4.5; SAD, 3.0 Å; three molecules in the asymmetric unit
protein,measurement,value
"Spr0693_(59–324) T197M/I317M, selenomethionine-labelled (domain or fragment, Streptococcus pneumoniae R6, UniProt Q8DQF9 59-324, looked up, selenomethionine instead of methionine, Spr0693, Streptococcus pneumoniae R6, residues Ser59–Lys324 (without the TM and the membrane-proximal domain); Plasmid built on the full-length spr0693 plasmid (C-terminal tag) and purified on Ni-NTA; The structure was solved from a Se-Met crystal of the T197M/I317M double mutant; residues Pro142–Gly163 are not traced; also called truncated Spr0693 (Ser59–Lys324); TM&MP-truncated Spr0693; source: …) SVLLSGTVTAKNEQYVYFDASKGDLDEILVSVGDKVSEGQALVKYSSSEAQAAYDSASRAVARADRHINELNQARNEAASAPAPQLPAPVGGEDATVQSPTPVAGNSVASIDAQLGDARDARADAAAQLSKAQSQLDAMTVLSTLEGTVVEVNSNVSKSPTGASQVMVHIVSNENLQVKGELSEYNLANLSVGQEVSFTSKVYPDKKWTGKLSYISDYPKNNGEAASPAAGNNTGSKYPYTIDVTGEVGDLKQGFSVNMEVKSKTK",stoichiometry N,6
